Laboratory results taken from US20250368734A1 (ANTENGENE BIOLOGICS, published 2025).

T1: mouse GPRC5D (mouse, UniProt Q9JIL6 1-344)
T1 construct: whole, on cells; HEK293T-mGPRC5D cells; also called mGPRC5D; murine GPRC5D
T1 sequence (looked up): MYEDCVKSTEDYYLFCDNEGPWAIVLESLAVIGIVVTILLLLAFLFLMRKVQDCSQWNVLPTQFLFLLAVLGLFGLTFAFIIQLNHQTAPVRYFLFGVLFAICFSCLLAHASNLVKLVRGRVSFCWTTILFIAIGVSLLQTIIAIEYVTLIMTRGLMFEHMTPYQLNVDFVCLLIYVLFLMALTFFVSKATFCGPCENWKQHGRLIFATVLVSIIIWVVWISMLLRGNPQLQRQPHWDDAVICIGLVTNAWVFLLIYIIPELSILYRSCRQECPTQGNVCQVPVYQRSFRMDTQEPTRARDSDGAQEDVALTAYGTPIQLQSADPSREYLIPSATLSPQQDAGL


Assays:
human GPRC5D [1] = molecular target: T2, human GPRC5D (human, UniProt Q9NZD1 1-345); experiment: cell-based or functional assay
T2 sequence (Q9NZD1 whole entry): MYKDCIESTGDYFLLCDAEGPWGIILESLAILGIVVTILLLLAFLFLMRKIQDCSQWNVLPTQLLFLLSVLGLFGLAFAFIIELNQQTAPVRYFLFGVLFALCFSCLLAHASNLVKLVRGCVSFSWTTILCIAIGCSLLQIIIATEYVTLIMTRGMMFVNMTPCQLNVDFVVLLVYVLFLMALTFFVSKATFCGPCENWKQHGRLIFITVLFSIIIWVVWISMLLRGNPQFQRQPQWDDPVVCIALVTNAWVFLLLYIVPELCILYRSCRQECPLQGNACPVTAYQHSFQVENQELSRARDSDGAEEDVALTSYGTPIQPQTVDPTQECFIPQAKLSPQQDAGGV

cynomolgus monkey GPRC5D = molecular target: T3, cynomolgus monkey GPRC5D (cynomolgus monkey); experiment: FACS, HEK293T-cynoGPRC5D cells
T3 construct: whole, on cells; HEK293T-cynoGPRC5D cells; also called cynoGPRC5D
Excerpt: (§1) The subcloning plates were screened by Mirrorball assay and the subclones with good binding ability were expanded to 24-wells for confirmation tests. The specificity and cross-reactivity of these subclones were confirmed with FACS analysis. Briefly, parental HEK293T, HEK293T cells stably over-expressing human GPRC5D protein (i.e., HEK293T-hGPRC5D), HEK293T cells stably over-expressing cynomolgus monkey GPRC5D protein (i.e., HEK293T-cynoGPRC5D), HEK293T cells stably over-expressing mouse GPRC5D protein (i.e., HEK293T-mGPRC5D), and OPM2 cells were incubated with antibodies produced by each subclone, respectively. Fluorescent dye-conjugated secondary antibody was used to detect the binding of the primary antibody with the cells. Median fluorescence intensity (MFI) was measured by FACS analysis,
(§2) As a result, 21 antibodies were discovered with unique sequences showing positive binding with HEK293T-hGPRC5D and OPM2 cells. Among which, some clones could also bind with HEK293T-cynoGPRC5D and/or HEK293T-mGPRC5D. […] ATG596 was a positive human IgG1 control antibody which comprises a VH region having an amino acid sequence as set forth in SEQ ID NO: 199, and a VL region having an amino acid sequence as set forth in SEQ ID NO: 200.

mouse GPRC5D = molecular target: T1, mouse GPRC5D; experiment: FACS, HEK293T-mGPRC5D cells
Excerpt: as §1, §2

human GPRC5D [2] = molecular target: T2, human GPRC5D; experiment: FACS, HEK293T-hGPRC5D cells
Excerpt: as §1, §2

human GPRC5D [3] = molecular target: T2, human GPRC5D; experiment: FACS, OPM-2 cells
Excerpt: as §1, §2

Binder	EC50 (human GPRC5D [1]) [nM]	Top killing % (human GPRC5D [1]) [%]	% Positive (cynomolgus monkey GPRC5D) [%]	MFI (cynomolgus monkey GPRC5D)	% Positive (mouse GPRC5D) [%]	MFI (mouse GPRC5D)	% Positive (human GPRC5D [2]) [%]	MFI (human GPRC5D [2])	% Positive (human GPRC5D [3]) [%]	MFI (human GPRC5D [3])
Bis-83A9B8 (bispecific antibody) chain 1: EVQLQQSGPELVKPGASVKMSCKASGYTFSNYVIHWVKQKPGQGLEWIGYFNPYNDGSKYNEKFKGKATLTSDKSSSTAYMELSSLTSEDSAVYYCARGGVRRYFDVWGAGTTVTVSS chain 2: GGGGSGGGGSGGGGSEVQLVESGGGLVQPGRSLRLSCAASGFTFDNYAMHWVRQAPGKGLEWVSGISWNSGSIGYADSVKGRFTISRDNAKNSLYLQMNSLRAEDTALYYCAKDSRGYGDYSRGGAYWGQGTLVTVSSEIVMTQSPATLSVSPGERATLSCRASQSVSSNLAWYQQKPGQAPRLLIYGASTRATGIPARFSGSGSGTEFTLTISSLQSEDFAVYYCQQYNNWPWTFGQGTKVEIK chain 3: DIQMTQSPSSLSASLGERVSLTCRASQDIGDNLNWLQQEPDGTIKRLIYATFSLDSGVPKRFSGSRSGSVYSLTISRLESEDFVDYFCLHYASFPYTFGGGTKLEIK	1.9	66.9								
Bis-15D6G2 (bispecific antibody) chain 1: EVQLVESGGDLVKPGGYLRLSCAASGFTFSSHGMSWVRQTPDKRLEWVATISSGGRNTYYPDSVKGRFTISRDNAKNILYLQMSSLKSEDTAMFYCTRHSGDAMDYWGQGTSVTVSS chain 2: GGGGSGGGGSGGGGSEVQLVESGGGLVQPGRSLRLSCAASGFTFDNYAMHWVRQAPGKGLEWVSGISWNSGSIGYADSVKGRFTISRDNAKNSLYLQMNSLRAEDTALYYCAKDSRGYGDYSRGGAYWGQGTLVTVSSEIVMTQSPATLSVSPGERATLSCRASQSVSSNLAWYQQKPGQAPRLLIYGASTRATGIPARFSGSGSGTEFTLTISSLQSEDFAVYYCQQYNNWPWTFGQGTKVEIK chain 3: DILLTQSPAILSVSPGERVSFSCRASQSIGTNIHWYQQRTNGSPRLLIKYASESISGIPSRFSGSGSGTDFTLSINSVESEDIADYYCQQSKSWPTFGGGTKLEIK	6.69	45.9								
Bis-98A3A8 (bispecific antibody) chain 1: EVQLQQSGPELVKPGASVKMSCKASGYTFTYYVTHWVRQKPGQGLEWIGYINPYNDGTMFNEKFKGKATLTSDKSSSTAYMEFSSLTSEDSAVFYCARGGVRRYFDVWGAGTTVTVSS chain 2: GGGGSGGGGSGGGGSEVQLVESGGGLVQPGRSLRLSCAASGFTFDNYAMHWVRQAPGKGLEWVSGISWNSGSIGYADSVKGRFTISRDNAKNSLYLQMNSLRAEDTALYYCAKDSRGYGDYSRGGAYWGQGTLVTVSSEIVMTQSPATLSVSPGERATLSCRASQSVSSNLAWYQQKPGQAPRLLIYGASTRATGIPARFSGSGSGTEFTLTISSLQSEDFAVYYCQQYNNWPWTFGQGTKVEIK chain 3: DIQMTQSPSSLSASLGERVSLTCRASQDIGSNLNWLQQKPDGTIKRLIYATSSLDSGVPKRFSGSRSGSDYSLTINSLESEDFVDYYCLQYASFPYTFGGGTKLEIK	2.95	64.4								
Bis-96C9E7 (bispecific antibody) chain 1: EVQLQQSGPELVKPGASVKMSCKASGYTFTYYILHWVKQKPGQGLEWIGYFNPYNDGNKFNERFRGKATLTSDKSSSTAYMELNSLTSEDSAVYFCARGGVRRYFDVWGAGTTVTVSS chain 2: GGGGSGGGGSGGGGSEVQLVESGGGLVQPGRSLRLSCAASGFTFDNYAMHWVRQAPGKGLEWVSGISWNSGSIGYADSVKGRFTISRDNAKNSLYLQMNSLRAEDTALYYCAKDSRGYGDYSRGGAYWGQGTLVTVSSEIVMTQSPATLSVSPGERATLSCRASQSVSSNLAWYQQKPGQAPRLLIYGASTRATGIPARFSGSGSGTEFTLTISSLQSEDFAVYYCQQYNNWPWTFGQGTKVEIK chain 3: DIQMTQSPSSLSASLGERVSLTCRASQDIGSNLNWLQQEPDGTIKRLISATFSLDSGVPKRFSGSRSGSDYSLTISSLESEDFVNYYCLQYASFPYTFGGGTKLEIK	2.34	66.2								
Bis-110B4H5 (bispecific antibody) chain 1: EVQLQQSGPELVKPGASVKMSCKASGYTFTFYIMHWVKQKPGQGPEWIGYINPYNDGTKYNAKFKGKATLSSDRSSSTAYMELSSLTSEDSAVYYCARGGVRRYFDVWGAGTPVTVSS chain 2: GGGGSGGGGSGGGGSEVQLVESGGGLVQPGRSLRLSCAASGFTFDNYAMHWVRQAPGKGLEWVSGISWNSGSIGYADSVKGRFTISRDNAKNSLYLQMNSLRAEDTALYYCAKDSRGYGDYSRGGAYWGQGTLVTVSSEIVMTQSPATLSVSPGERATLSCRASQSVSSNLAWYQQKPGQAPRLLIYGASTRATGIPARFSGSGSGTEFTLTISSLQSEDFAVYYCQQYNNWPWTFGQGTKVEIK chain 3: DIQMTQSPSSLSASLGERVSLTCRSSQDIGSNLNWLQQEPDGTIKRLIYATFSLDSGVPKRFSGSRSGSHYSLTISSLESEDFVVYYCLQYGSFPYTFGGGTKLEIK	3.62	61.5								
Bis-26E2H6 (bispecific antibody) chain 1: EVQLVESGGDLVKPGGSLKLSCAASGFTFSSYGMSWVRQTPDKRLEWVATISSGGSYTYYPDSVKGRFTISRDNAKNTLYLQMSSLKSEDTAMYYCARHATDYWGQGTTLTVSS chain 2: GGGGSGGGGSGGGGSEVQLVESGGGLVQPGRSLRLSCAASGFTFDNYAMHWVRQAPGKGLEWVSGISWNSGSIGYADSVKGRFTISRDNAKNSLYLQMNSLRAEDTALYYCAKDSRGYGDYSRGGAYWGQGTLVTVSSEIVMTQSPATLSVSPGERATLSCRASQSVSSNLAWYQQKPGQAPRLLIYGASTRATGIPARFSGSGSGTEFTLTISSLQSEDFAVYYCQQYNNWPWTFGQGTKVEIK chain 3: QIVLTQSPAIMSASPGEKVTMTCSASSSVSYMHWYQQKSGTSPKRWIYDTSKLASGVPARFSGSGSGTSYSLTISSMEAEDAATYYCQQWSSNPLTFGAGTKLELK	30.5	79.1								
82A1C10 (antibody, V domains shown, Mouse monoclonal antibody from hybridoma subclone) VH: QVQLKESGPGLVAPSQSLSITCTVSGFSLTNYAVTWVRQPPGKGLEWLGVIWGDGSTYYHSALVSRLSITKDNSRTQVLLKLNSLQTDDTARYYCAKGGYSPFAYWGQGTLVTVSA VL: DVVMTQTPLSLPVSLGDQASISCRSSQSLVHSNGNTYLHWYLQKPGQSPKLLIFKVSNRFSGVPDRFSGSGSGTDFTLKISRVEAEDLGVYFCSQNTHVPFTFGSGTKLEIK			94.2	1070	4.5	119	99.4	8090	94.8	550
110B4H5 (antibody, V domains shown, Mouse monoclonal antibody from hybridoma subclone) VH: EVQLQQSGPELVKPGASVKMSCKASGYTFTFYIMHWVKQKPGQGPEWIGYINPYNDGTKYNAKFKGKATLSSDRSSSTAYMELSSLTSEDSAVYYCARGGVRRYFDVWGAGTPVTVSS VL: DIQMTQSPSSLSASLGERVSLTCRSSQDIGSNLNWLQQEPDGTIKRLIYATFSLDSGVPKRFSGSRSGSHYSLTISSLESEDFVVYYCLQYGSFPYTFGGGTKLEIK			96.7	2470	78.9	772	98.7	5250	98.2	894
108C4C12 (antibody, V domains shown, Mouse monoclonal antibody from hybridoma subclone) VH: EVQLQQSGPELVKPGASVKMSCKASGYTFTSYVIHWVKQKTGQGLEWIGYFNPYNDGTKYNEEFKGKATLTSDKSSNTAYMELNSLTSDDSAVYFCARGGVRRYFDVWGAGTTVTVSS VL: DIQMTQSPSSLSASLGERVSLTCRASQDIGSNLNWLQQEPDGTIKRLIYATFGLDSGVPKRFSGSRSGSDYSLTISSLESEDFVDYYCQQYASFPYTFGGGTKLEIK			59.1	355	65.7	274	96.6	5010	98.3	878
101B3G3 (antibody, V domains shown, Mouse monoclonal antibody from hybridoma subclone) VH: EVQLQQSGPELVKPGASMKISCKASGYSFTGYTMNWVKQSHGKNLEWIGLINPYNGGTRYNQKFKDKATLTVDKSSSTAYMELLSLTSEDSAVYYCARWLLRYAMDYWGQGTSVTVSS VL: DIVMTQSQKFMSTSVGDRVSITCKASQNVGNAVAWYQQKPGHSPKLLISSASNRKNGVPDRFTGSGSGTDFTLTVSNMQSEDLADYFCQQYSDSSWTFGGGTKLEIK			57.4	585	85.2	1480	97.9	27100	99.6	1370
98A3A8 (antibody, V domains shown, Mouse monoclonal antibody from hybridoma subclone) VH: EVQLQQSGPELVKPGASVKMSCKASGYTFTYYVTHWVRQKPGQGLEWIGYINPYNDGTMFNEKFKGKATLTSDKSSSTAYMEFSSLTSEDSAVFYCARGGVRRYFDVWGAGTTVTVSS VL: DIQMTQSPSSLSASLGERVSLTCRASQDIGSNLNWLQQKPDGTIKRLIYATSSLDSGVPKRFSGSRSGSDYSLTINSLESEDFVDYYCLQYASFPYTFGGGTKLEIK			95.3	2070	89.4	566	93.2	2070	98.7	962
